Source: PMC8778713, “Knockout of Arabidopsis thaliana VEP1, Encoding a PRISE (Progesterone 5β-Reductase/Iridoid Synthase-Like Enzyme), Leads to Metabolic Changes in Response to Exogenous Methyl Vinyl Ketone (MVK)” (Metabolites, 2021)

Columns and labels:
Assay in all cases: purified protein
Assay type in all cases: biochemical, Arabidopsis thaliana
purified protein [1] = substrate: CC(=O)[C@H]1CC[C@H]2[C@@H]3CCC4=CC(=O)CC[C@]4(C)[C@H]3CC[C@]12C; conditions: 0.2 mM NADPH; substrate 0.05 to 1.6 mM
purified protein [2] = substrate: C=CC(C)=O; conditions: 0.2 mM NADPH; substrate 0.05 to 1.6 mM
purified protein [3] = substrate: NC(=O)C1=CN([C@@H]2O[C@H](COP(=O)(O)OP(=O)(O)OC[C@H]3O[C@@H](n4cnc5c(N)ncnc54)[C@H](OP(=O)(O)O)[C@@H]3O)[C@@H](O)[C@H]2O)C=CC1; conditions: progesterone as the substrate; varied: cofactor

B1: rAtStR2 (A. thaliana steroid reductase 2) (Arabidopsis thaliana) (protein)
chain: MGSENGSLMRRNEVDENVALIFGVTGLVGREIVKTLLMSKPGWRIYGVARNPEINSMTKMYNFISCDLLNASETKQRLSPLQDIVSHVFWVTWSGEFPLDTDECCVQNKTMLMNALDAILPNAKRLKHFSLQTGMKHYVSLVEETMARGEGSSLYYYSEECPRKSSGKNFYYVLEDLLKEKITRSSVVWSVQRPGLLMGSSSRTLYNFMGSLCVYGAMCKYLNLPFVFGGTRECWEESYIDGSDSNLVAEQHIFAATSGKVREKGEAFNAINGVGFTWKEIWPEIGKKLGVQVNETTMFDEGFWFGREMVERKHVWDEIVVKEKLVRTEIEDLANWYFLDALFRCPFKLLGKREKVDRFGFKRKYRTLDSVLYWIDVMRDEKLIPL
notes: tag removal not mentioned
Km (purified protein [1]): 64.7 µM | kcat (purified protein [1]): 0.15 s⁻¹ | kcat/Km (purified protein [1]): 2310 M⁻¹ s⁻¹ | Km (purified protein [2]): 157.5 µM | kcat (purified protein [2]): 0.03 s⁻¹ | kcat/Km (purified protein [2]): 163 M⁻¹ s⁻¹ | Km (purified protein [3]): 41.0 µM | kcat (purified protein [3]): 0.12 s⁻¹ | kcat/Km (purified protein [3]): 2930 M⁻¹ s⁻¹
